Test: soluble fraction after stress (log2 fold change); higher = more stays soluble; pooled small domains, quantitative proteomics
Settings: stress: pH 4
How it was run: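 Aggregation propensity is read out as the fold change in how much of each domain remains soluble after acid stress. The custom small-domain libraries were pooled, held at pH 4 and analysed with high-throughput quantitative proteomics. On the log2 scale used, higher values mean more of the domain stayed soluble.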

## HMRGADNAASILKEVGPHPEDGKPITVRSGRYGPYVKHGTTNATLPKDIKPEEITLDEAIALINERVAKG
  soluble fraction (log2): -0.143

## HMRGGKGTVPDVTGMDAAAAVRILEKAGMNVAYIRGAGFVAEQTPAAGTKLKKGDKAYITLSWK
  soluble fraction (log2): 0.181

## HMRGGWESLTDREREIAVLAAEGHSNRTIASTLFISDRTVQSHVSRALRALGVDSRTGIPSLVTTATR
  soluble fraction (log2): -0.217

## HMRGWGTVKRRTPKSGRYRASYIGPDGKRYAADHTYAAKVDADAWLSSERALITAGVWTPPTDRVT
  soluble fraction (log2): -0.0591

## HMRHLSVPSQDTQQVLQRLKVELALPEGARVRSDPSDPGRRLIPFTESVPQEMIDQYPVVSINI
  soluble fraction (log2): -0.458

## HMRIAGIDIPDNKRGEVALTYIFGIGRSSSKKILKSAGIDSDKQIGKWTDDESNLVRKLIRDEYTIEGDL
  soluble fraction (log2): -0.484

## HMRIASANAIYDELLNKRDDAKLAELKQEDINLYALYILQNGSADERAALENTQGIDVVLKEIINLQNG
  soluble fraction (log2): -0.416

## HMRIGINDRIHEIVDVLRLKKSTPFEDLFSGLVTRFDLVITFLALLEMGKLRLLRLYQTDPLAPLHVEYTG
  soluble fraction (log2): 0.0416

## HMRILDFPALKTEFDQLTKDLMAKYPEDGADRVRAIIETVLGPGKKVGALQPHQAELLAEVNTSLKANL
  soluble fraction (log2): -0.0969

## HMRILGIDPGTRITGYGIIDIEGNRLRHVDNGIIKTRSSDALPLRLKVIYDGLTAVLKQYSPQAV
  soluble fraction (log2): -0.629

## HMRIQTVDYNTFISMVEDGKVDAAEIQQQENRILFSDQDQKVYKTAMVPDDDLTQRLLDAGVSTNG
  soluble fraction (log2): -0.837

## HMRISKRQLILESAAAIINEKGADYLTLDAVAQRAGISKGGLFYHFKSKDELIKELVNYANN
  soluble fraction (log2): -1.57

## HMRISLKAQVYEYLKQAIINGDLKVGEIYSEQYFADKLSISRTPVREAILQLQHENMVEVKANRGIIVK
  soluble fraction (log2): -0.406

## HMRITTKNYFKAISEVGFENLPEVLKKSHLVIEEKTNKGNDWGIYENDAEAKKVFDLAFDKLEEFIDRKED
  soluble fraction (log2): -0.203

## HMRIVQTDYRNFLSQVESGAVRSVQIDETQIRYTALDSGGKEIVYNTGKVDDPGLVNRLYDAGVEFSQVIP
  soluble fraction (log2): -1.23

## HMRKATEVPFTAFKDSIENSHGKLSKAGLARHLADEYGMSQRNMERRINNLIDNKTIKYGNEGGLVWIG
  soluble fraction (log2): 0.22

## HMRKDWTPGAFVEAFVNDTPATRSTILAKAVSAGLSRWAADNLLRTADNDGLMVRQGSGKRNEPFTYRRGP
  soluble fraction (log2): 0.22

## HMRKEEFIRELVLELKQNVSEQVILEQKRFYEEYILTEVRGGKTEEEVIASLSEPRLLAKSIIDAAEAGGD
  soluble fraction (log2): -1.5

## HMRKKDGEAYVLPRPLKKGDSVLIYDIDKKGTVLQPPEKGGKTALIQAGIIQTRVPVSNLRLLE
  soluble fraction (log2): -0.0646

## HMRKKIIAQTLEEIRKSKGYSQKQVAAFIKVKPTTYNTYESGRTEPPAEILVRLSYLYRTPVDTLVQRDR
  soluble fraction (log2): 0.226

## HMRKMNDAVFYVEMSRPKRGYYTATYKLITRNPNSLPEHEITRRFFQMLEETIRKNPPYYLWTH
  soluble fraction (log2): 0.104

## HMRKPISQEIVDEVLKLAKNNPDWGYDRIAGVMKYLKYDVSATTVRHILDDNGIVPDPERRLR
  soluble fraction (log2): -0.0119

## HMRKRLLQLVHIGKSQLGMDDETYRSLLSQQFYQNSAKNISYSELVKLVKILQQKGAKIRLPH
  soluble fraction (log2): 0.262

## HMRKVVLEEKEANYYAEPNSESELLGVLKRGIHLTVTDVKKEAGSDGWVKLVHPDGQEGWISGRARIRV
  soluble fraction (log2): -0.209

## HMRKYKIKEELPDNIYKIIQDNPGIVQKDIYDILGREYQQNISSYIYSMDKNGVIKRDKHGNSYKLYL
  soluble fraction (log2): -1.01

## HMRLATSELVYRIRALIRDQELQPGERLGSERALAQSLGISRSDLRMALAVLEASHEVIRKIGRAGGIVVS
  soluble fraction (log2): ≥ 0.43

## HMRLHSSGEDYLKAIFILEAQHSSVRSVEVAEYMNVSKASVSHAVALLKKNGFLKMNQDYDLTER
  soluble fraction (log2): -0.906

## HMRLIALPSVTDISIRQAEATLMSIGIKVSSIQYAPSEYKDLVLEVKYRGQSIIQGAKIPEGSSVVLVAGN
  soluble fraction (log2): -0.122

Source: the domain aggregation screens of Martell et al. (2025)
